Experimental data reported in PMC524172, “Yellaboina Sailu 1 sailu@cdfd.org.in”.

T1: IdeR (iron-dependent regulator) (Mycobacterium tuberculosis, UniProt P9WMH1 1-230)
T1 sequence: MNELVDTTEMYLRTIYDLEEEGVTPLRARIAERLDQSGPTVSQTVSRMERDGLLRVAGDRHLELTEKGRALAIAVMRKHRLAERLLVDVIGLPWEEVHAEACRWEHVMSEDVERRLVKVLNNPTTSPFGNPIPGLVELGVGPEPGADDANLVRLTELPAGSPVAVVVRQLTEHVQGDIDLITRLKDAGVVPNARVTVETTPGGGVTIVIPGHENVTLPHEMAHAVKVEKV

B1: DIP0699 motif (secA) (dsDNA)
DNA 1: TTGTGTTAGCCTAGGCTAA
DNA 2: TTAGCCTAGGCTAACACAA
B2: DIP2272 motif (sortase) (dsDNA)
DNA 1: TGTGGGCACACCAACCTAA
DNA 2: TTAGGTTGGTGTGCCCACA
B3: DIP2304 motif (FpG) (dsDNA)
DNA 1: TTGGGGTGGCCTATCCTTA
DNA 2: TAAGGATAGGCCACCCCAA
B4: negative control motif (dsDNA)
DNA 1: TTTTCATGACGTCTTCTAA
DNA 2: TTAGAAGACGTCATGAAAA
B5: DIP2161 motif (sidA) (dsDNA)
DNA 1: TTAGGGTAGGCTAATCCAA
DNA 2: TTGGATTAGCCTACCCTAA
B6: DIP0586 motif (iucA) (dsDNA)
DNA 1: TTAGGGTAGCTTCGCCTAA
DNA 2: TTAGGCGAAGCTACCCTAA

Molecular target: T1, IdeR (iron-dependent regulator)
Test: EMSA; 200 uM Mn2+; 30 pmol IdeR
Conditions: protein: recombinant; tags: 6xHis (pRSET vector); chain copies: 4; label: 32P end label; blunt

Q: Does B1 bind?
A: binds

Q: Does B2 bind?
A: binds

Q: Does B3 bind?
A: binds

Q: Does B4 bind?
A: no binding

Q: Does B5 bind?
A: binds

Q: Does B6 bind?
A: binds
